The record followed here is paper PMC4182028.

For data set [1], the target named is Chaetomium thermophilum p44 (residues 1-285) (Chaetomium thermophilum).
Data set [2] has as its system ctXPD R195E (Chaetomium thermophilum). In words: BLI. The following applies: 3'-biotin; BLI (Octet RED): 20 mM Tris-HCl pH 8.0, 150 mM NaCl, 10 mM MgCl2, 1 mM DTT, 1 mg/ml BSA; 0.5-5 uM ctXPD; temperature not stated.
Data set [3] has as its system ctXPD F192A (Chaetomium thermophilum). In words: BLI. The conditions noted are these: 3'-biotin; BLI (Octet RED): 20 mM Tris-HCl pH 8.0, 150 mM NaCl, 10 mM MgCl2, 1 mM DTT, 1 mg/ml BSA; 0.5-5 uM ctXPD; temperature not stated. (In general: BLI is a label-free optical method that tracks binding on a fibre tip over time.)
Data set [4] has as its system ctXPD K48R (Chaetomium thermophilum). Kind of data set: BLI. The conditions noted are these: 3'-biotin; BLI (Octet RED): 20 mM Tris-HCl pH 8.0, 150 mM NaCl, 10 mM MgCl2, 1 mM DTT, 1 mg/ml BSA; 0.5-5 uM ctXPD; temperature not stated.
Data set [5] has as its system ctXPD Y156A (Chaetomium thermophilum). Kind of data set: BLI. The conditions noted are these: 3'-biotin; BLI (Octet RED): 20 mM Tris-HCl pH 8.0, 150 mM NaCl, 10 mM MgCl2, 1 mM DTT, 1 mg/ml BSA; 0.5-5 uM ctXPD; temperature not stated.
Data set [6] concerns ctXPD R195A (Chaetomium thermophilum). In words: BLI. The following applies: 3'-biotin; BLI (Octet RED): 20 mM Tris-HCl pH 8.0, 150 mM NaCl, 10 mM MgCl2, 1 mM DTT, 1 mg/ml BSA; 0.5-5 uM ctXPD; temperature not stated.
Data set [7] concerns ctXPD wild type;ctp44 (1-285) (Chaetomium thermophilum;Chaetomium thermophilum). Kind of data set: BLI. The conditions noted are these: 3'-biotin; BLI (Octet RED): 20 mM Tris-HCl pH 8.0, 150 mM NaCl, 10 mM MgCl2, 1 mM DTT, 1 mg/ml BSA; 0.5-5 uM ctXPD; temperature not stated.
Data set [8] relates to ctXPD wild type (Chaetomium thermophilum). In words: BLI. The conditions noted are these: 3'-biotin; BLI (Octet RED): 20 mM Tris-HCl pH 8.0, 150 mM NaCl, 10 mM MgCl2, 1 mM DTT, 1 mg/ml BSA; 0.5-5 uM ctXPD; temperature not stated.
Data set [9] has as its system ctXPD K719W (Chaetomium thermophilum). Kind of data set: BLI. The following applies: 3'-biotin; BLI (Octet RED): 20 mM Tris-HCl pH 8.0, 150 mM NaCl, 10 mM MgCl2, 1 mM DTT, 1 mg/ml BSA; 0.5-5 uM ctXPD; temperature not stated.

In data set [1], “Chaetomium thermophilum XPD wild type (enzyme)” had a ssDNA-dependent ATPase activity of ctXPD with ctp44 (1-285) added (0.12 without ctp44) (mol ATP·s^−1 ·mol^−1 XPD) of 0.7.
Consider “Chaetomium thermophilum XPD K719W (enzyme)”, for which, in data set [1], the fluorescence-based helicase activity of ctXPD K719W with ctp44 (1-285) added (Rel. Fluorescence Change·s^−1) stood at 4.8 and the ssDNA-dependent ATPase activity of ctXPD K719W with ctp44 (1-285) added (mol ATP·s^−1 ·mol^−1 XPD) worked out at 0.12.
As usually defined, the Kd is the constant that tells how readily two partners part at equilibrium. A high value points to weaker binding. For “GACTACGTACTGTTACGGCTCCATCTCTACCGCAATCAGGCCAGATCTGC [50-nt ssDNA (BLI)]”, the Kd came to 916 nM in data set [2]; 668 nM in data set [3]; 159 nM in [4]; 561 nM in [5]; 1040 nM in data set [6]; 93 nM in data set [7]. The Kd was 118 nM in [8] and 192 nM in data set [9].
